A value given as a limit tells only on which side of the number the result lay.

Data set [1] addresses T1, ekLAL (rhLAL containing the FLAG affinity and ek cleavage site, designed to give TLAL-G77), produced in HEK293 cells.
T1 chain: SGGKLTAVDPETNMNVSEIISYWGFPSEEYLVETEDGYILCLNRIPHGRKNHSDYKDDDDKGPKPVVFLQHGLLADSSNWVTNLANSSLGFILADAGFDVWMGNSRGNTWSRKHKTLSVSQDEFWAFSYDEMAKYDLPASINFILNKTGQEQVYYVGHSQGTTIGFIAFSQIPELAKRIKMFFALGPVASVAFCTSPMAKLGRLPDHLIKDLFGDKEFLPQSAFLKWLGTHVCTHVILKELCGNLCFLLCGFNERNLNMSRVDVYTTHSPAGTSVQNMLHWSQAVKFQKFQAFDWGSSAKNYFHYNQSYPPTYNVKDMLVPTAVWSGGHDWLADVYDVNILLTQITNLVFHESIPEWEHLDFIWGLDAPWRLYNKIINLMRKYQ

Data set [2] addresses T2, full-length rhLAL produced in HEK293 cells.
T2 chain: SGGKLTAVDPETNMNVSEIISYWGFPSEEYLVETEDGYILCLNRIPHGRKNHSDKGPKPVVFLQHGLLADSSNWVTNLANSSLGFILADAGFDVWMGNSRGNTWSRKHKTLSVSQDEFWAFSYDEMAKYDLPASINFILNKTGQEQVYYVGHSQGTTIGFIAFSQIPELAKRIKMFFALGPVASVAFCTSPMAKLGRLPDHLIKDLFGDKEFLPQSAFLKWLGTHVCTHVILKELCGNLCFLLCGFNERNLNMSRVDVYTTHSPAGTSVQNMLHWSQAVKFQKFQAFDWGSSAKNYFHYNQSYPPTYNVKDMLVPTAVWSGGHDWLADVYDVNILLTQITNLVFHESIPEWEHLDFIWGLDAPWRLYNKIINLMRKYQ

The target in data set [3] is T3, ekLAL (rhLAL containing the FLAG affinity and ek cleavage site, designed to give TLAL-K76), produced in HEK293 cells.
T3 chain: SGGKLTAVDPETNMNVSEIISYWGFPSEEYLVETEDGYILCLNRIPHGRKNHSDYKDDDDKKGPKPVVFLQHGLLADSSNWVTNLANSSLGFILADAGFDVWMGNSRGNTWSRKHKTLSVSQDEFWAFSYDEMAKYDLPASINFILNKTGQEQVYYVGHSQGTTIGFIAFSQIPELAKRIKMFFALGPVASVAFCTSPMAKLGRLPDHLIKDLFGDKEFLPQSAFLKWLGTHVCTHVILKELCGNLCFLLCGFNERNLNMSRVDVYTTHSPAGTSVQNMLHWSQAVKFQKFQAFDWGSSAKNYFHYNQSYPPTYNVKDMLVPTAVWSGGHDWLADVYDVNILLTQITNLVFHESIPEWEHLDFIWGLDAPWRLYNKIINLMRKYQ

Data set [4] addresses T4, rhLAL protein produced from transgenic chicken.
T4 chain: T2 chain

B1: bovine enterokinase (EC 3.4.21.9) (protein)
chain: IVGGSDSREGAWPWVVALYFDDQQVCGASLVSRDWLVSAAHCVYGRNMEPSKWKAVLGLHMASNLTSPQIETRLIDQIVINPHYNKRRKNNDIAMMHLEMKVNYTDYIQPICLPEENQVFPPGRICSIAGWGALIYQGSTADVLQEADVPLLSNEKCQQQMPEYNITENMVCAGYEAGGVDSCQGDSGGPLMCQENNRWLLAGVTSFGYQCALPNRPGVYARVPRFTEWIQSFLH
Consider B1, for which, in data set [1], the “proteolytic cleavage (ek digestion, 6 days at room temperature, SDS-PAGE)” value is on record as “approximately 50% cleavage into TLAL-G77”. In addition, the “proteolytic cleavage (molecular weight before and after ek digestion)” value in data set [2] and in data set [4] was “non-specific ek cleavage did not occur during the digestion reaction” throughout. Besides, in data set [3], the “proteolytic cleavage (ek digestion, 6 days at room temperature)” value was greater than 70% cleavage into TLAL-K76.

For the origin of these results see patent US20150098933.
